{"source": "patent US20100056457", "key": {"[1]": {"system": "pE2S six-finger protein (synthetic (Zif268/Sp1C framework))", "assay": "EMSA"}, "[2]": {"system": "pE2S six-finger protein (synthetic (Zif268/Sp1C framework))", "assay": "footprint", "settings": "DNase I footprint, 10 uM Zn, 4 C, mean of three; protected exactly the 18 bp site"}, "[3]": {"system": "gg1 six-finger protein (synthetic)", "settings": "CITED ref 40 (Graslund 2005); cited from earlier work"}}}
{"substance": "CGGGGGGCTCCCCTGGTT (double strand) [E2S target site]", "values": [{"measurement": "Kd", "setting": "[1]", "result": 3.25, "unit": "nM"}]}
{"substance": "ERBB-2 promoter fragment, 267 bp (-209 to +3)", "values": [{"measurement": "Kd", "setting": "[2]", "result": 14, "unit": "nM"}]}
{"substance": "GTCAAGGCAAGGCTGGCC (double strand) [gg1 target site]", "values": [{"measurement": "Kd", "setting": "[3]", "result": 0.7, "unit": "nM"}]}
